Laboratory results from patent US20230324389.

B1: MMP7 (protein)
chain: YSLFPNSPKWTSKVVTYRIVSYTRDLPHITVDRLVSKALNMWGKEIPLHFRKVVWGTADIMIGFARGAHGDSYPFDGPGNTLAHAFAPGTGLGGDAHFDEDERWTDGSSLGINFLYAATHELGHSLGMGHSSDPNAVMYPTYGNGDPQNFKLSQDDIKGIQKLYGKRSNSRKK
B2: ST14/Matriptase (protein)
chain: GSDEKDCDCGLRSFTRQARVVGGTDADEGEWPWQVSLHALGQGHICGASLISPNWLVSAAHCYIDDRGFRYSDPTQWTAFLGLHDQSQRSAPGVQERRLKRIISHPFFNDFTFDYDIALLELEKPAEYSSMVRPICLPDASHVFPAGKAIWVTGWGHTQYGGTGALILQKGEIRVINQTTCENLLPQQITPRMMCVGFLSGGVDSCQGDSGGPLSSVEADGRIFQAGVVSWGDGCAQRNKPGVYTRLPLFRDWIKENTGV
B3: Legumain (protein)
chain: VPIDDPEDGGKHWVVIVAGSNGWYNYRHQADACHAYQIIHRNGIPDEQIVVMMYDDIAYSEDNPTPGIVINRPNGTDVYQGVPKDYTGEDVTPQNFLAVLRGDAEAVKGIGSGKVLKSGPQDHVFIYFTDHGSTGILVFPNEDLHVKDLNETIHYMYKHKMYRKMVFYIEACESGSMMNHLPDNINVYATTAANPRESSYACYYDEKRSTYLGDWYSVNWMEDSDVEDLTKETLHKQYHLVKSHTNTSHVMQYGNKTISTMKVMQFQGMKRKASSPVPLPPVTHLDLTPSPDVPLTIMKRKLMNTN
B4: MMP2 (protein)
chain: YNFFPRKPKWDKNQITYRIIGYTPDLDPETVDDAFARAFQVWSDVTPLRFSRIHDGEADIMINFGRWEHGDGYPFDGKDGLLAHAFAPGTGVGGDSHFDDDELWTLGEGQVVRVKYGNADGEYCKFPFLFNGKEYNSCTDTGRSDGFLWCSTTYNFEKDGKYGFCPHEALFTMGGNAEGQPCKFPFRFQGTSYDSCTTEGRTDGYRWCGTTEDYDRDKKYGFCPETAMSTVGGNSEGAPCVFPFTFLGNKYESCTSAGRSDGKMWCATTANYDDDRKWGFCPDQGYSLFLVAAHEFGHAMGLEHSQDPGALMAPIYTYTKNFRLSQDDIKGIQELYGASPDIDLGTGPTPTLGPVTPEICKQDIVFDGIAQIRGEIFFFKDRFIWRTVTPRDKPMGPLLVATFWPELPEKIDAVYEAPQEEKAVFFAGNEYWIYSASTLERGYPKPLTSLGLPPDVQRVDAAFNWSKNKKTYIFAGDKFWRYNEVKKKMDPGFPKLIADAWNAIPDNLDAVVDLQGGGHSYFFKGAYYLKLENQSLKSVKFGSIKSDWLGC

Experiments:
[1] = molecular target: 818-C1MA
[2] = molecular target: 818-P1
[3] = molecular target: 818-C1 MB

| Protein | unmasking (protease cleavage) rate [1] | unmasking (protease cleavage) rate [2] | unmasking (protease cleavage) rate [3] |
| --- | --- | --- | --- |
| B1 | MMP1: 818-P1>818-C1MA=818-C1 MB | MMP1: 818-P1>818-C1MA=818-C1 MB | MMP1: 818-P1>818-C1MA=818-C1 MB |
| B2 | ST14 unmaking was characterized by 818-C1MA>818-P1>818-C1 MB | ST14 unmaking was characterized by 818-C1MA>818-P1>818-C1 MB | ST14 unmaking was characterized by 818-C1MA>818-P1>818-C1 MB |
| B3 | Legumain demonstrated minimal unmasking differences | Legumain demonstrated minimal unmasking differences | Legumain demonstrated minimal unmasking differences |
| B4 | MMP2: 818-P1>818-C1MA>818-C1 MB | MMP2: 818-P1>818-C1MA>818-C1 MB | MMP2: 818-P1>818-C1MA>818-C1 MB |
